Several values for one entry are separate records, joined by “and”; a condition that tells them apart may be missing. Identical values can stand only once.
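Also: lentiviral eGFP-IRES-mCherry reporter pool sorted by FACS 96 h post-transduction, gated on mCherry-high cells, Illumina read counts normalized per million, median across four biological replicates.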

The series has as its system HEK293T. Kind of series: median enrichment of reporter reads in eGFP-reduced (low/intermediate) vs eGFP-high sorted cells (eGFP-extension fusion abundance) (ratio); higher = stronger loss of eGFP-fusion protein abundance (more destabilising extension).
Take SDFDHLNFL [IL1RL1]: the median enrichment amounted to 0.533.

For the substance RCTKDLLF [GNA13], the median enrichment was 1.38.

Take LVVDVWGI [XRCC5]: the median enrichment turned out to be 4.14. Take YYYYY [Tyr05]: the median enrichment came out at 22.4.

For YVLRWNSLGEHLMSQPIQLPHNPAEGRVRGE [WDR62], the median enrichment is 7.76. Take “YKGAEEGWSGWAGGPTSSPQHLPPTQLGQRGQDVCLPLRDRCLCPHTATGV [SEMA3G]”: the median enrichment worked out at 2.63. Under “RGALVSPQSSQAAGSPRQLSGHPVPSAPPSAALCSRPAPPSRGCLGLFTCFPSHINTVFPLLSYNSPTAHSPPH [TNFSF12]” stands 8.64; under LKKKKG [TNFAIP6], 3.07. Regarding YGLQKNWPWGTKAFFSGLLPRP [KANK4], the median enrichment stood at 43.3.

As to LSYQTTY [USP51], the median enrichment is 1.11.

As for “YTCGEGLSWTRPLPTASSLQVQLKPLSSGGRHVERAGRPTAAENRAGTGSSCSAFPSFGDAGSAAPKHLPAPHSTVSEDSSLL [CDC14B]”, the median enrichment amounted to 0.953.

As for KKNVEAIGLLGG [Degron KLHDC2], the median enrichment is 5.08. Consider LVTGYVKSFNVVLKSKGLLITDSRIMCS [FEM1B], for which the median enrichment was 11. With CFWNRVKLSQRRRKSPGICTS [PPP1R14C] the figure was 13.7; with YSFKSNRIIFHLAVVRSN [SS18L2], 12.1. In the case of QEWKSGSSRYSFMLCSCEQSTKFE [LMLN], the median enrichment turned out to be 7.78.

In the case of QFDNKAEGLSSNMVAFF [ACSM4], the median enrichment came to 0.317. With QHGETPSLLKIQKKLARHGGGRL [FBLIM1], the median enrichment was found to be 0.0978. As for CCCCCCCCCC [Cys10], the median enrichment was determined as 9.58. Consider QPKTRGSDLC [EPC2], for which the median enrichment is 0.415. For the substance YHAPRLEGRNSRLQNRHEMVWPCDYTL [TRMT44], the median enrichment came out at 1.98. With RSKDNGVFFL [USP44] the figure was 1.94. With LNCSQLEML [DNAJC24] the figure was 0.695; with KKKKKKK [Lys07], 0.751. In the case of WPPPASLSPHP [TTC24], the median enrichment is 0.329. Under “SETAGFLLLFFLVVQLSPPPLLSCLLIWSFSLFSACHVFSGTYLHPPQHQFP [CNTNAP5]” stands 11.4. As for “WADPGYVPYPRGLSIDRDYIITWLEVKGSIQVLHLVLPCLLSDHSDGLMWLLMWNCRRVQRRVCNKAIGKHTGAFPSPSGPRP [HS3ST3B1]”, the median enrichment worked out at 4.31.

For SLYQKPEVE [UGT2B17], the median enrichment was 0.724. As for YNPFALMSLPFVT [SIX2], the median enrichment was 1.36. With WGEPQTLRES [C7orf61] the figure was 0.458. With “SQREENILVLFFFQKKRKIKEIYPLLPLHLSQ [SLITRK3]” the figure was 40.1. Consider RCPCHLPSVHPESSQ [PPFIBP2], for which the median enrichment was found to be 0.445. For the substance “YNWKLSTHRKRSLLGRWPPQCLEKNLWASTAAREELLQARGRKGENTNSLVVSGVGG [S1PR1]”, the median enrichment worked out at 5.24.

Regarding GGGGGGGGGG [Gly10], the median enrichment was 11.7. Under “RVWGPCQPAAPKPAPLPKQPRPLPLNPGPGRPGRPPVTAAAPALCRAALTCLPSQPLTSRLSLGQREPFGGAACLLWFWEG [FLNA]” stands 3.47. As for YRTGIHEQKAESQTCLS [CD5], the median enrichment amounted to 0.587. In the case of “YGAKRCLSEVGHFLKIQIFISLFRHGCLQVFHCLLLLEI [TMEM246]”, the median enrichment was 19.9. Turning to WLTLSLCCLLLS [SIRPB1], the median enrichment was 18.9.

Consider VVVVVVV [Val07], for which the median enrichment came out at 7.67. SNRIEQNRIE [PCSK5]: the median enrichment was 0.616.

For the substance SCNPTRAHFIIAETSVCIPVITHCNRATN [IDO1], the median enrichment was found to be 4.95. As for CGACYGLNCAPK [ZNF81], the median enrichment is 1.07. With “SKQKHQHTSLDNSIWSTRLSYRFNFFCILRTL [HNRNPH3]” the figure was 6.48. Turning to YTPLFVVHYFD [KCNQ2], the median enrichment came out at 7.27. For the substance RKLLP [NOX4], the median enrichment stood at 0.64. Regarding YTHMYDPYKCFKILKM [TRDN], the median enrichment came to 11.1.

In the case of CGIQRERGSGRGGPEWGRLEGYRPAWMT [SNCG], the median enrichment turned out to be 3.44. Under RHVIP [NPFF] stands 0.57; under LADI [MED30], 0.335; under “RSCAAQSQTPAPTTYFCYTQEHFRKLSQLIFCFSSMSILSVSHFEDFFSLLYLCFSFFGFYFVVLSVIFNVPKICTCSIKNVV [HOOK3]”, 3.09. Take SVS [PACSIN3]: the median enrichment was found to be 0.33. Under FANCD2 stands 5.79 and 4.35.

Take “RGKRAPVRRKGRRFRDVGGHPSPSRPCWGHGSGGGDMGPRQTASPTEHLDSNSVPGGAPTPPFSVSSCLFFFIFITKFHSF [ZFP36L2]”: the median enrichment came to 5.27. Under KKKKK [Lys05] stands 0.46. Regarding “YCLRGRLAASPAPPDLAPRAAAGAAACPGPPLRPASSRRPGAQPCAAEDSRDWRRPRPATAGARGHLPGLLTLSPHWEWAPRG [TMUB1]”, the median enrichment stood at 5.27.

For “SAGSSPLVHSSQGQKGVDMINTESPTSTPTEFPARQCQKHFSREPKPNQEEAREEAGREEGAFPAPRFLKCRSDTCVGVHVLY [SWI5]”, the median enrichment is 1.02. For CRDLAERWRSHQGPRDNYQEQKPLPVPH [IGSF22], the median enrichment worked out at 3.87.

For the substance “WARTLNRTPVGPARTACSAGDGSDPWSSIAPHDIESRPVFALWEENGRESGQLSQSIRAGRT [ABCC6]”, the median enrichment came out at 7.78. Under “WREGSNGSRELDTVHPNTSPPPGHLEESSARIPRQSSPPAPAVPSCAVLLPHSAPGPCPFIPLKHPLKPLHHFHSQQKVIEHL [HAUS5]” stands 4.17; under CYSK [FAM162B], 0.641; under LKG [SSBP1], 0.599. With ERAPTGRWGRRG [Degron KLHDC3] the figure was 5.05. With “SAQQSHHPASQAGGRSWGRGLSPVRLLLVKGQGPGQASSSVQVILASVVGGRESKTCSAVSSSGD [PIK3C2B]”, the median enrichment turned out to be 2.95. With GGRVGHPKR [ZNF786] the figure was 0.607; with RRRRR [Arg05], 0.5; with DDDDD [Asp05], 0.224. Consider RRPVPR [TBC1D24], for which the median enrichment is 1.51. As for YMSF [PPP1CC], the median enrichment came out at 1.47.

Turning to RGPEASWVSLGPQKLIKE [PCP2], the median enrichment was 0.815.

Consider SCLY [GLRX2], for which the median enrichment was determined as 1.01. Turning to “DISSYLTMLSLLGAVLVGPGPCIMPRSQLQGPSWGPGWALGSGPCCSSPSHQPVPVVRKPGLLSSFLLGECQTQGPSTGLGWE [BAP1]”, the median enrichment came to 5.92. With YWCGK [NME7] the figure was 2.52; with “YSSSPVDEHLGWKFCSHTQDTAQDPAGVFFSVVRCTIGLMSIVLEDERKLRRTRSTDPDVIKHFVVSLSHR [BICD1]”, 3.59; with “QGPGLRREALSQRLPHPSPLAFNSVASCSPAAEPPRIRLHVTLKLTNFHGPH [FYN]”, 20.4. Under ESVAFLLFPH [NKAIN2] stands 6.56; under YKLLKRFICVLLTRFFLFVACFGN [SKIL], 9.42; under YLISYYIF [PCDHB8], 5.

As for KKKKKK [Lys06], the median enrichment turned out to be 1.5.

(Values after the supplement of paper PMC11502859.)
